Measured values: publication PMC9820295

What was measured:
[1] = system: DgDps1 (Dgeo_0281) (Deinococcus geothermalis); test: EMSA; settings: EMSA 1x (from 5x stock): 20 mM HEPES pH 7.2, 32 mM KCl, 0.1 mM EDTA, 10% glycerol, 70 ng/uL BSA, 8 ng/uL poly(dI-dC), 2.5 mM DTT; 37 C 30 min; 6% native PAGE …
[2] = system: Dgeo_0257 (putative Dps, DgDps3) (Deinococcus geothermalis); test: EMSA; settings: no added metal; half-maximal shift, fragment not specified; EMSA 1x (from 5x stock): 20 mM HEPES pH 7.2, 32 mM KCl, 0.1 mM EDTA, 10% glycerol, 70 ng/uL BSA, 8 ng/uL poly(dI-dC), 2.5 mM DTT; 37 C 30 min; 6% native PAGE …
[3] = biological target: DgDps1 (Dgeo_0281) (Deinococcus geothermalis) (UniProt Q1J1Q0); test: SEC; HiLoad 16/600 Superdex 75 prep grade; 25 mM Tris-HCl pH 7.5, 150 mM NaCl; size markers ferritin 440 kDa, conalbumin 75 kDa, ovalbumin 43 kDa, anhydrase 29 kDa; also run with 1 mM Fe2+ or Fe3+

Substance | Kd [1] [µM] | Kd [2] [µM] | stoichiometry N [3]
Dgeo_2112 promoter region | > 40 | < 4 | –
Dgeo_2112 ORF region | > 40 | < 4 | –
DgDps1 (Dgeo_0281) (from UniProt Q1J1Q0 1-222) (natural protein) | – | – | 2
